Test results reported in patent US20050043510A1, “Affinity purification system using troponin molecules as affinity ligands” (priority 2003, published 2005).

Key:
[1] = molecular target: rabbit skeletal muscle troponin C (Oryctolagus cuniculus, UniProt P02586); conditions: in the presence of calcium; Hanson Pierce et al. (1998); cited from earlier work
calmodulin = calmodulin (Homo sapiens, UniProt P0DP23); conditions: in the presence of calcium; Hanson Pierce et al. (1998); cited from earlier work
bovine serum albumin = bovine serum albumin (Bos taurus, UniProt P02769); conditions: in the presence of calcium; Hanson Pierce et al. (1998); cited from earlier work
Chain of bovine serum albumin (P02769 25-607): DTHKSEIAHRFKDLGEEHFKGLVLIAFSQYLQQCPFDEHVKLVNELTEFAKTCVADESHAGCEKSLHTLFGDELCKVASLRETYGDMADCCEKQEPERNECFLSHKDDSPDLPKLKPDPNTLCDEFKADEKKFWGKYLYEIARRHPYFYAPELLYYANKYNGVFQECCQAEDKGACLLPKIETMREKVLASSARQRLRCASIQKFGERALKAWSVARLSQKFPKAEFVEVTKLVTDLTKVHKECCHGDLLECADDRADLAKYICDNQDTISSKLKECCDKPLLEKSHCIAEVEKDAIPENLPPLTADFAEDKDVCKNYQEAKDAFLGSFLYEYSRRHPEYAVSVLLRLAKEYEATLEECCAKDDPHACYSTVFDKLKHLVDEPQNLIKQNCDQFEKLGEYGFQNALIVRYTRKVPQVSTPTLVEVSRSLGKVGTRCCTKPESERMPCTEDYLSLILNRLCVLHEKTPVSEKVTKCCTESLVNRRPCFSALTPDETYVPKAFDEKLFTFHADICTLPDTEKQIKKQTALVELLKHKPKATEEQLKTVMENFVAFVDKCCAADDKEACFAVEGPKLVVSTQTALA

[2] = system: troponin C-tagged C-terminal truncated version of La/SSB (TnC-LaΔC)

Chain of rabbit skeletal muscle troponin C (P02586 whole entry): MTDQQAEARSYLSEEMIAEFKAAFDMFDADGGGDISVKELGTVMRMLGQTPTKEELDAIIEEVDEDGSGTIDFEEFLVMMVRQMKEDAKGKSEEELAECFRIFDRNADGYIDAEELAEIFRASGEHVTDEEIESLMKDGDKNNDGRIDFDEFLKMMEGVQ

SRLDYLKSSLLHLGSR (SEQ ID NO:1) [Troponin C binding peptide, previously described (Hanson Pierce et al. 1998)]
Calcium dependent binding [1]: demonstrated
Calcium dependent binding (calmodulin): not
Calcium dependent binding (bovine serum albumin): not

biotinylated thrombin (Thrombin Cleavage Capture Kit, Novagen)
thrombin proteolytic cleavage (SDS-PAGE) [2]: apparent complete cleavage when 0.1 units of thrombin was used
